Laboratory results from PMC6220203, “Cellular signaling and gene expression profiles evoked by a bivalent macrocyclic peptide that serves as an artificial MET receptor agonist” (Scientific Reports, 2018).

Target: MET receptor (endogenous, on EHMES-1 cells) (human (endogenous in EHMES-1)) (UniProt P08581)

An MET receptor Tyr1234/1235 phosphorylation (cell-based enzyme-linked immunosorbent assay) in EHMES-1 cells against the concentration of aMD5-PEG11; bell-shaped profile of 120 nM was found for “MET receptor (endogenous, on EHMES-1 cells) (from UniProt P08581 25-1390)” in this work.
